The results in this text go back to patent US20240382610A1 (TALLAC THERAPEUTICS, published 2024).

The target of assay [1] is T1, Human nectin-4 ECD-6His (TNT-175) (human, UniProt Q96NY8 32-349).
T1 construct: the entry holds the extracellular domain with the C-terminal 6His tag
T1 sequence: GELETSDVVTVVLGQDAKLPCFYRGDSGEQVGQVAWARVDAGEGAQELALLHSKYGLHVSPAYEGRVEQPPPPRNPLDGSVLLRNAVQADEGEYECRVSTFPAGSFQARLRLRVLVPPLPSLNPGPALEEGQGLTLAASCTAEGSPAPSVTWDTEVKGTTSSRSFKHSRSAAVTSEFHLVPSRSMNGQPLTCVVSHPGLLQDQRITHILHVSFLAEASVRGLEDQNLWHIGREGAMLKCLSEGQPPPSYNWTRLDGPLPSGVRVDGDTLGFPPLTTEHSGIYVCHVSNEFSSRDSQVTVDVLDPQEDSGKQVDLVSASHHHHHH
Description: competition ELISA; nectin-4 ECD premixed with TNT211, captured by the coat antibody; % of signal without premix antibody. As to the method:
(§1) Competition experiments of nectin-4 antibodies. ELISA plates were coated overnight at 4° C. with goat anti-mouse IgG at […] in PBS. […] As positive control, nectin-4 was diluted at same concentrations without a premix antibody. Two wells per plate were allocated for diluent only as negative/background control. Plates were washed as previously, 50 μL/well of premix was added to each plate and incubated for one hour. Plates were washed then incubated at room temperature for one hour with Rabbit anti 6× HIS HRP diluted 1:4,000 in diluent. Plates were washed once more and incubated at room temperature for 20 minutes with 50 μL/well of ABTS substrate. […] Binding was measured as an Optical Density (O.D.) value normalized to background and calculated as a percentage of positive control at the lowest nectin-4 dilution for greatest resolution.

Another assay deals with T2, human nectin-4 on cells (human, UniProt Q96NY8 32-510).
T2 construct: whole, on cells; also called PVRL4
T2 sequence (looked up): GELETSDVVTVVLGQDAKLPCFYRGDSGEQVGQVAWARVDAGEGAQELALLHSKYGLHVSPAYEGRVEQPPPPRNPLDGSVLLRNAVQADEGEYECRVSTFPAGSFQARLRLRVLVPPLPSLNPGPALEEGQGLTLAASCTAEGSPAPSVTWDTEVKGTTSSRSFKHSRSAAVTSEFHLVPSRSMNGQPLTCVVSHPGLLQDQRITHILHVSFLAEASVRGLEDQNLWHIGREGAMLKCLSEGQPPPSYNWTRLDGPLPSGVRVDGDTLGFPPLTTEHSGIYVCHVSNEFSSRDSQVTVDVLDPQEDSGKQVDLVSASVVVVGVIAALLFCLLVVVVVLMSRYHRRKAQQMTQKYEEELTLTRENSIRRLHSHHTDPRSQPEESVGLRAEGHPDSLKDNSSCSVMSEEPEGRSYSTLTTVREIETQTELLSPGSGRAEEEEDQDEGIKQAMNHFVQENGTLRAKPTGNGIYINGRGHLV
In words: flow cytometry MFI, MNK74 (nectin-4 positive) over AGS (negative). On the procedure: Cell binding of nectin-4 antibodies. Cell binding of the nectin-4 antibodies was also assessed. MNK74 (nectin-4 positive) and AGS (nectin-4 negative) cells were obtained from ATCC and cultured according to their protocols. Cells were detached with TrypLE (Gibco) and washed by centrifugation for five minutes at 400×g with FACS buffer (PBS+2% FBS). Cells were resuspended in FACS buffer, plated in 96-well format (0.25 e6/well) then pelleted by centrifugation for five minutes at 400×g. Cells were stained at 4° C. in Fixable Viability Dye eFluor 506 (eBioscience) diluted 1:4,000 in PBS. […] Cells were centrifuged, washed once in FACS buffer and stained at 4° C. with Goat F(ab′)₂ anti-Mouse IgG APC (Southern Biotech) diluted 1:400 in FACS buffer for 30 minutes or appropriate anti-human IgG. Cells were centrifuged, washed twice and fixed in 0.5% paraformaldehyde. Cells were analyzed on Attune NxT Flow Cytometer (Thermo Fisher), with subsequent data analysis by Flowjo 10.7 (BD). Dead cells were excluded by gating on the eFluor 506-negative population. […] Binding was assessed by median fluorescent intensity.

Assay [2] concerns the target T1, Human nectin-4 ECD-6His (TNT-175). In words: competition ELISA; nectin-4 ECD premixed with TNT202, captured by the coat antibody; % of signal without premix antibody. As to the method: as §1
The target is the same in assay [3]. Description: competition ELISA; nectin-4 ECD premixed with TNT207, captured by the coat antibody; % of signal without premix antibody. On the procedure: as §1
Assay [4] has the same target. Description: competition ELISA; nectin-4 ECD premixed with TNT206, captured by the coat antibody; % of signal without premix antibody. On the procedure:
as §1

Assay [5] has the same target. Description: competition ELISA; nectin-4 ECD premixed with TNT201, captured by the coat antibody; % of signal without premix antibody. As to the method:
as §1

Assay [6] has the same target. Description: competition ELISA; nectin-4 ECD premixed with TNT203, captured by the coat antibody; % of signal without premix antibody. On the procedure:
as §1

Assay [7] shares this target. In words: competition ELISA; nectin-4 ECD premixed with TNT209, captured by the coat antibody; % of signal without premix antibody. As to the method: as §1
Assay [8] has the same target. In words: competition ELISA; nectin-4 ECD premixed with TNT205, captured by the coat antibody; % of signal without premix antibody. On the procedure:
as §1

For assay [9] the target is unchanged. Description: competition ELISA; nectin-4 ECD premixed with TNT204, captured by the coat antibody; % of signal without premix antibody. On the procedure: as §1
For assay [10] the target is unchanged. Description: competition ELISA; nectin-4 ECD premixed with TNT210, captured by the coat antibody; % of signal without premix antibody. As to the method: as §1
For assay [11] the target is unchanged. In words: SPR ProteOn, mAb on protein A. On the procedure: Initial testing of binding of nectin-4 antibodies to nectin-4. […] Biotinylated protein A (15 μg/mL) was immobilized to the surface of an NLC chip. 30 nM of purified mAb supernatant was diluted in PBS-T and captured over the protein A surface. Serial dilutions of human nectin-4 were injected over the mAb-coated chips, and binding kinetics were determined. Chips were regenerated using 4:1 v/v of IgG elution butter/4M NaCl.

Assay [12] shares this target. In words: competition ELISA; nectin-4 ECD premixed with TNT208, captured by the coat antibody; % of signal without premix antibody. On the procedure:
as §1

Assay [13] shares this target. In words: competition ELISA; nectin-4 ECD premixed with TNT212, captured by the coat antibody; % of signal without premix antibody. As to the method: as §1

B1: TNT-192 (antibody, mouse IgG2a, kappa)
heavy: EVQLLESGGGVVQPGRSLRLSCAASGFTFSSYGMHWVRQAPGKGLEWVAVISYDGSNKYYADSVKGRFTISRDNSKNTLYLQMNSLRAEDTAVYYCAKDYGYNWNFFDYWGQGTLVTVSSAKTTAPSVYPLAPVCGDTTGSSVTLGCLVKGYFPEPVTLTWNSGSLSSGVHTFPAVLQSDLYTLSSSVTVTSSTWPSQSITCNVAHPASSTKVDKKIEPRGPTIKPCPPCKCPAPNLLGGPSVFIFPPKIKDVLMISLSPIVTCVVVDVSEDDPDVQISWFVNNVEVHTAQTQTHREDYNSTLRVVSALPIQHQDWMSGKEFKCKVNNKDLPAPIERTISKPKGSVRAPQVYVLPPPEEEMTKKQVTLTCMVTDFMPEDIYVEWTNNGKTELNYKNTEPVLDSDGSYFMYSKLRVEKKNWVERNSYSCSVVHEGLHNHHTTKSFSRTPGRPQGFGPP
light: DIVMTQSPSSLSASVGDRVTITCRASQGISNYLAWYQQKPGKVPKLLIYAASTLQSGVPSRFSGSGSGTDFTLTISSLQPEDVATYYCQKYNSAPYTFGQGTKVEIKRADAAPTVSIFPPSSEQLTSGGASVVCFLNNFYPKDINVKWKIDGSERQNGVLNSWTDQDSKDSTYSMSSTLTLTKDEYERHNSYTCEATHKTSTSPIVKSFNRNEC
On to B1, for which the “% of Positive” value in assay [1] amounted to 17.5%; in assay [2] it was 3.1%; in assay [3] it was 1.5%; in assay [4], 6%; in assay [5], 1.1%; in [6], 23.3%. Moreover, the “% of Positive” value stood at 20.5% in assay [7]; 36.9% in [8]; 2.9% in assay [9]; 1.1% in assay [10]; 2.3% in assay [12]; 2.2% in assay [13]. Also, the “Fold-change of binding to MNK74 compared to control AGS” value in the assay with human nectin-4 on cells came out at 4.5 fold. In [11], the Kd is 9.14 nM. This molecule yielded a koff in assay [11] of 0.00294 s⁻¹. Also, in assay [11], the kon worked out at 322000 M⁻¹ s⁻¹.

B2: TNT-193 (antibody, mouse IgG2a, kappa)
heavy: QVQLQESGPGLVKPSGTLSLTCTVSGGSISSGGYYWAWIRQPPGKGLEWIGSIYYTGSTYYNPSLKSRVTIYVDTSKNQFSLKLSSVTAADTAVYYCARDPFPEPPDAFDIWGQGTMVTVSSAKTTAPSVYPLAPVCGDTTGSSVTLGCLVKGYFPEPVTLTWNSGSLSSGVHTFPAVLQSDLYTLSSSVTVTSSTWPSQSITCNVAHPASSTKVDKKIEPRGPTIKPCPPCKCPAPNLLGGPSVFIFPPKIKDVLMISLSPIVTCVVVDVSEDDPDVQISWFVNNVEVHTAQTQTHREDYNSTLRVVSALPIQHQDWMSGKEFKCKVNNKDLPAPIERTISKPKGSVRAPQVYVLPPPEEEMTKKQVTLTCMVTDFMPEDIYVEWTNNGKTELNYKNTEPVLDSDGSYFMYSKLRVEKKNWVERNSYSCSVVHEGLHNHHTTKSFSRTPGRPQGFGPP
light: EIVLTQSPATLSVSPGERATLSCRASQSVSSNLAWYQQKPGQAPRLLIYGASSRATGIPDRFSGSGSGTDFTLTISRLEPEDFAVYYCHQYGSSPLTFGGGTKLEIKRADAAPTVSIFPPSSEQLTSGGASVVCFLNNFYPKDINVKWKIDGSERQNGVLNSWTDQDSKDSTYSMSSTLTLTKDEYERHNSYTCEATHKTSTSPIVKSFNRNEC
B2: the “% of Positive” value in assay [1] turned out to be 6%; in assay [2], 3%; in [3] it was 1.6%; in assay [4] it was 3.1%; in assay [5], 2.2%; in [6], 17%. Also, the “% of Positive” value in assay [7] came to 5.1%; in [8] it was 8.4%; in [9] it was 1.9%; in assay [10], 2.1%; in assay [12], 2.4%; in assay [13] it was 3.7%. For the same molecule, the “Fold-change of binding to MNK74 compared to control AGS” value in the assay with human nectin-4 on cells was found to be 5.2 fold. This molecule showed a Kd in assay [11] of 3.73 nM. Moreover, in assay [11], the koff worked out at 0.00837 s⁻¹. The molecule further gave a kon in assay [11] of 2.24e+06 M⁻¹ s⁻¹.
